{"source": "patent US20250042990A1", "about": "(Eli Lilly, published 2025)", "key": {"human IL-1β [1]": {"target": "T1, human IL-1β (human, UniProt P01584 117-269)", "test": "cell-based or functional assay"}, "human IL-1β [2]": {"target": "T1, human IL-1β", "test": "MSD-SET (solution equilibrium titration, electrochemiluminescence), 37° C., 72 h equilibrium", "procedure": "MSD (Meso Scale Discovery) electrochemiluminescence assay is utilized to measure the affinity of Antibody I, Antibody II, Antibody III, and Canakinumab to human IL-1β. First, the equilibrium mixture of antibodies and human IL-1β is set up; in the mixture the antibody concentrations are kept constant at 1 pM, 10 pM, and 100 pM whereas the ligand is titrated in the concentration ranging from 0.9 nM to 0.00004 nM (2.5 times dilution between concentrations). The equilibrium mixture is set up in sealed non-binding 96-well plate at 37° C. for 72 hours.\nMSD Gold Streptavidin plates are used to detect the free antibodies in the equilibrium mixture. The MSD plates are first blocked with blocking buffer (PBS+1% BSA) for 1 hour on a shaker set at 800 rpm and then washed 3 times with washing buffer PBST (PBS+0.05% Tween 20). The plates are coated with biotinylated human IL-1β followed by 3× washing with PBST. The equilibrium mixtures are added to the coated plate, incubated at room temperature with shaking for 2.5 mins and immediately washed 3× with PBST. The goat anti-human Sulfo-TAG antibody is added to the plate and incubated at room temperature for 1 hour with shaking. After three more washes, MSD Read Buffer at 1:2 concentration diluted in MilliQ water is added to the wells. Immediately afterwards, the plates are read using an MSD Sector Imager SI6000 instrument."}}}
{"binder": "Canakinumab (antibody, human IgG4 S228P, kappa, F234A L235A, V domains shown, Comparator) VH: QVQLVESGGGVVQPGRSLRLSCAASGFTFSVYGMNWVRQAPGKGLEWVAIIWYDGDNQYYADSVKGRFTISRDNSKNTLYLQMNGLRAEDTAVYYCARDLRTGPFDYWGQGTLVTVSS VL: EIVLTQSPDFQSVTPKEKVTITCRASQSIGSSLHWYQQKPDQSPKLLIKYASQSFSGVPSRFSGSGSGTDFTLTINSLEAEDAAAYYCHQSSSLPFTFGPGTKVDIKR", "values": [{"measurement": "Avg. IC50, neutralization of human IL-1β (4 pM) in HEK-Blue IL-1β SEAP reporter cells", "setting": "human IL-1β [1]", "result": 26, "unit": "pM"}, {"measurement": "Kd", "setting": "human IL-1β [2]", "result": 0.0135, "unit": "nM"}]}
